# Data from the supplement of paper PMC12042874.
# ± gives the uncertainty stated by the source.
# Assay: amyloid nucleation score (Sup35N fusion, yeast selection) (log enrichment); library NNK2; higher = more nucleation; inactive = no reads after selection
# Procedure, shortened: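 The nucleation score is the DiMSum log enrichment of output over input reads, centred on the mode score of non-aggregating sequences. Only sequences with 100 or more input reads were scored, using Illumina sequencing of input and output plasmid inserts. Psi-negative yeast expressing Sup35N fused to peptides of 20 random codons were induced 24 hours with 100 μM copper sulfate and grown 7 days at 30°C on medium lacking adenine and uracil.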
row,Substance,amyloid nucleation score
1,LFMLGMSAQLVFAFSLLGGI,2.62 ± 0.078
2,SLARYAGGFRARSGKIFSVC,0.802 ± 0.22
3,GRLLQGWLIAEHVITVHFPM,inactive
4,SNCSLMGYCMYAYNGSDTGC,4.58 ± 0.11
5,FLNPFNHREHPRVED,0.775 ± 0.62
6,VATLMIKFR,4.116 ± 0.036
7,ENGTLTIYMVAL,4.39 ± 0.075
8,LYLGMDYWWDV,-0.164 ± 0.33
9,SSNVK,0.685 ± 0.4
10,LPKGNYSLLAERRSYFGAPI,inactive
11,SLAHQAFAEPSWTKVEE,0.278 ± 0.26
12,GELGQCVIKSVMSMLHKRAN,-0.347 ± 0.79
13,TVMRGVLCMTILYLMWHKGY,4.75 ± 0.08
14,ESKIACCDMMLW,5.89 ± 0.062
15,NAGVYLFYMCICYVKYFFYM,-0.87 ± 0.78
16,LYRSSLRFMPTIICETVWMY,inactive
17,SLSHRADACVTS,-0.647 ± 0.64
18,SFAAMLVSSKVVGWVTGRAT,1.68 ± 0.21
19,VAQAQQQYP,1.08 ± 0.53
20,HGYSWCCFHVGS,8.926 ± 0.054
21,QTLAYTSDKTS,0.549 ± 0.45
22,CDPFYTSLGCSSN,2.85 ± 0.2
23,ITSNSVHIGITNYYRRELDQ,5.32 ± 0.056
24,LSTSWQRLVTILPLEWYHS,0.052 ± 0.26
25,FLGFI,-1.94 ± 1.1

row,Substance,amyloid nucleation score
1,EVLRYGAVWMISRLVGLSLP,0.754 ± 0.31
2,SWMIYLCRVGTITRMQDWLW,-0.445 ± 0.35
3,VIRVESCPVYFYLTTRTAGS,0.633 ± 0.8
4,KYCMRDDSSSLMYLWGCTRG,-0.168 ± 0.29
5,RYPLVKFQCYTGNYGKFGNL,3.01 ± 0.071
6,CNSQVVWFFRI,4.69 ± 0.062
7,TLVNCVSMWWALHSVANGNG,3.3 ± 0.11
8,YFLLVVCGWHGFIIESLLRF,inactive
9,YFNGL,inactive
10,FGSALFSIILH,5.607 ± 0.033
11,SYCVWCLYTSLLTLGQSASI,0.163 ± 0.33
12,NLGNDGHSELRHYSNL,inactive
13,NCSYNMNKRASSMFHSGCVV,2.81 ± 0.14
14,NDKVFYGRFSFHHVGHWCRV,-0.506 ± 0.41
15,NLLLFYPAISVSCVNYTMRV,7.127 ± 0.052
16,SQSKDMMCLSGSYSYYTACA,-1.21 ± 0.78
17,NGNRSHLELRCGWMSWCDRA,-0.318 ± 0.55
18,WSQRMLRSQEVPCSWWEIVT,0.905 ± 0.13
19,AYASPCMQDLGRCLGRPRML,1.21 ± 0.31
20,IARLASQSYLDMVADAEDTG,0.472 ± 0.49
21,GVKST,0.422 ± 0.74
22,RTLGHSLYPIDIYMGSDHLG,inactive
23,DGASIFSSAFIVGSGTLKQM,-0.911 ± 0.78
24,VIRSLSFLSYIWVDKGVGVV,-0.89 ± 0.53
25,WSWLRICIS,0.549 ± 0.32

row,Substance,amyloid nucleation score
1,LQYFLGAFAILFMCLLWVLQ,0.381 ± 0.64
2,GVNILTLWHWIYFNTTVQNN,-1.19 ± 0.38
3,VIMSGHSNRHWRSGLERMAG,0.823 ± 0.27
4,SWNKGIHGGSTANCWFIVIK,0.029 ± 0.61
5,YSTEPSRHGIWNG,-0.735 ± 0.56
6,ARPIKFYKKLYFSCMIELLR,-1.38 ± 0.54
7,LITIAIAARCSRMIGLQLFL,-0.495 ± 0.32
8,VDVVG,0.299 ± 0.65
9,CGLKDTTKLAVDVTPQNM,0.908 ± 0.3
10,FSSFDIMRQLTMLNICLVSW,5.773 ± 0.047
11,VWRSLMCFSWNPTMHRLISV,0.363 ± 0.53
12,YIKFDGSTWKGVVFYYEMWE,-1.12 ± 0.76
13,YRARKASLTDVSSSVKVNMS,-0.026 ± 0.63
14,NWSHELQIQLCAMAYREWSE,5.777 ± 0.038
15,GIIGYDVKNKHHLTVGLRFI,-0.285 ± 0.24
16,GSVFLRGTYWVLKDVCGWKE,0.391 ± 0.56
17,KMIVLK,0.449 ± 0.41
18,VYISSSFDFWMFVNFIDDTL,-0.511 ± 0.43
19,VNGYIPRNAAVGQYATRALK,-0.032 ± 1.1
20,YRVFRFCNMASYLVSICHNG,-1.2 ± 0.64
21,MRAYFYNKRVISYSLISFPV,-1.45 ± 0.78
22,GVFALSPRKHLRCDVVAWGV,0.884 ± 0.55
23,LRIICMSTMWRKCFRGIATA,-0.195 ± 0.39
24,SSRVDLLLLVETAFARSRIW,3.31 ± 0.08
25,PRRNTADCIGCTDRTGRRRC,0.6 ± 0.39

row,Substance,amyloid nucleation score
1,MELMNMV,-0.127 ± 0.65
2,VSSFVKLIWQVALINWVRMG,inactive
3,VRLVMI,0.019 ± 1.1
4,STTLSEIMIYAVTGG,-0.45 ± 0.31
5,APRGASALGCVYSDCSVVSI,0.058 ± 1
6,RRLYF,-0.561 ± 0.52
7,ALFYLSCQPSTGALESRYLG,1.73 ± 0.29
8,YKVQTLDAPNYRFIGVFVRS,-0.711 ± 1.1
9,YCDIKIEDLNLGGETGSDRR,inactive
10,MGVRY,1.42 ± 0.38
11,VSACQSESVSNVFDR,-0.152 ± 0.56
12,CIFILTD,-1.67 ± 0.45
13,LHHFSVTYNSITFCLNFPFR,4.11 ± 0.065
14,SSFLDRAIGGEAGRCSVWMK,0.856 ± 0.24
15,FWRSMTYVRF,-0.526 ± 0.36
16,KSMLLMIMSSFGSDIWHITS,-0.337 ± 1.1
17,ILLVILLTRIVKRSFFYRGF,inactive
18,KMEMRGCRMVTNMYC,-0.06 ± 0.33
19,FRSNSDLISFERASFR,-1.62 ± 0.55
20,FDPIRWLLNYIFMASTLYVE,-0.804 ± 0.44
21,VGCIYSFWEWVFKQPVRSRK,inactive
22,PRLNISLVMCNMFVGRGRFH,8.705 ± 0.039
23,FLSVTFFRLIRCMAL,inactive
24,VNGTTGRSCNKNLDVFNSSI,-0.35 ± 1.1
25,RSVWNASAFVAIFFRVRSQA,0.547 ± 0.36

row,Substance,amyloid nucleation score
1,SDMDYLWLCIVRTVLNVIYR,-1.17 ± 1.1
2,SLNISCYWHLKFVMRAWHTW,-0.465 ± 1
3,TVNCLGIFSRFLCLNWASWL,3.53 ± 0.15
4,MIYERASSVRISFGMLRFRS,-1.48 ± 1.1
5,VGSFIFLLRCWLSCAIAGVQ,-0.323 ± 0.65
6,VERFWLIWSRAYYFDFRVRE,0.098 ± 0.79
7,GLRNDGAEVINSQPFLAHMC,0.497 ± 0.5
8,GRCSSSLRICRSNWGAY,0.45 ± 0.22
9,ESICAKWFMIDMNSTHWTGF,-0.614 ± 0.41
10,TRCKGHYVWSLQSFRCSIVK,-0.512 ± 0.78
11,STSSNGSEYHCLSI,1.05 ± 0.44
12,IIHDLSSFRKCSLHPDIGSS,-0.373 ± 0.37
13,YSSAGDVMLNRQLDGCWLTR,-0.006 ± 0.53
14,GTLMTCVGG,inactive
15,DMDRCLGY,0.812 ± 0.2
16,THLSWQKMWFLIVHALKICL,inactive
17,RRGSELINYRR,-0.341 ± 0.79
18,TIVYWSTTRTTAPGDDRESV,5.31 ± 0.062
19,FCRGIHVTSIITTIDWYYSL,0.36 ± 0.62
20,VIKFFNLREQFFVIIMAYGF,inactive
21,CNIVPYRPINGWIPDVLLED,-0.275 ± 0.79
22,RMHWTKTH,-0.311 ± 1.1
23,HLHGCIAMCASSSLIAGCTE,-0.603 ± 0.78
24,CCWRSNSRNTNVIPNLSLFR,3.94 ± 0.04
25,GFSEL,0.306 ± 0.65

row,Substance,amyloid nucleation score
1,IEMHDINYNP,-0.596 ± 0.29
2,QIFRLDFDARDSWAKMLESL,0.536 ± 0.12
3,SDNMFSWRCLKDTWLDRRWA,0.294 ± 0.22
4,AWYWN,-0.49 ± 0.33
5,LRSGLSLGSNLPKGGNIRSL,-0.531 ± 1.1
6,NHMGIVRVVLMFGSYITLI,-0.174 ± 0.45
7,FIFVLI,3.08 ± 0.11
8,TIFSNFGSMSLIGHGIEQVI,-1.39 ± 0.76
9,CTLVFKGLGCKSVELGGTFC,-0.564 ± 0.61
10,GIHRSMTFLTNQNRLIWSHG,1.17 ± 0.4
11,WRVATCCAGRTIIQLETRFG,8.805 ± 0.058
12,SDPALVYRITYVIQ,-0.008 ± 0.49
13,NSNLLNTLFWVVT,4.03 ± 0.13
14,ASRPWMMYPHESARRSR,1.6 ± 0.22
15,YTISSIVVLDMFS,1.41 ± 0.21
16,TLSTGIFLLHLAYSSLSIDS,0.637 ± 0.35
17,SISIPCRYYKGLRSTSLYSR,-0.264 ± 0.26
18,STNYQLSLFR,3.96 ± 0.086
19,MCSPSQEVITYHSDFWNGQK,1.18 ± 0.68
20,VPGLESMR,0.57 ± 0.81
21,VRKGCLTRACWRGCECMQGG,2.03 ± 0.12
22,STSFIL,-0.718 ± 0.76
23,IRLFVRLNGHRWKRNW,-0.003 ± 0.33
24,YVYWWTYERMVSWSIYCVNT,2.96 ± 0.097
25,SLAIAVNAMIHNIPADIWMH,6.27 ± 0.083

row,Substance,amyloid nucleation score
1,LYMCSSVLWVGLSLV,0.851 ± 0.56
2,VVSWCVEVNPRERAKVDMCR,4.25 ± 0.047
3,REWVRYCRCWSCYYPTFFS,-0.198 ± 0.63
4,TFVKRIRYCFYLS,6.386 ± 0.023
5,YLGMLYFLVASHASDFATYW,4.16 ± 0.051
6,ICTGVSTHIEPRPLTELCFR,2.6 ± 0.073
7,TSCFLLILCLQMKCTSFTSS,2.18 ± 0.11
8,VVWGERVHGIWLMCYCNWTG,5.51 ± 0.091
9,LYDVRGEMSNVGWFM,-0.052 ± 0.54
10,LCSSVLGGNRETAECFRFDQ,-0.67 ± 0.34
11,SRFRA,0.357 ± 0.27
12,GGILH,-0.254 ± 1
13,IVWSNMTIQQSTSSVY,-0.25 ± 0.25
14,RYFWRVSNIVWASAF,-0.498 ± 0.44
15,ILLYRNAYWYPGKSSICLTS,-1.06 ± 0.49
16,FLQRSRNMNCLRGHDFNSNG,0.053 ± 1.1
17,FSTCYPPSDWVSRMASETLN,-0.096 ± 0.65
18,LLLCYYVFASHKFCCGDGVL,-0.302 ± 0.76
19,GGLVVECRVGW,3.42 ± 0.13
20,IHIWGSLSIDIEFVCGRQAK,1.99 ± 0.27
21,NDDKRSRLMRWETSKIRSSV,3.89 ± 0.052
